Experiments:
Assay in all cases: cell-based or functional assay
[1] = biological target: wild-type AAV1 capsid (adeno-associated virus type 1 (AAV1))
[2] = biological target: AAV2 capsid variant 1.45 (adeno-associated virus type 2 (AAV2)) (UniProt P03135)
[3] = biological target: SM 10-8 variant AAV capsid (Adeno-associated virus 2 (isolate Srivastava/1982) (AAV-2)) (UniProt P03135)
[4] = biological target: SM 100-10 variant AAV capsid (Adeno-associated virus 2 (isolate Srivastava/1982) (AAV-2)) (UniProt P03135)
[5] = biological target: SM 10-2 variant AAV capsid (Adeno-associated virus 2 (isolate Srivastava/1982) (AAV-2)) (UniProt P03135)
[6] = biological target: wild-type AAV8 capsid (adeno-associated virus type 8 (AAV8))
[7] = biological target: SM 100-3 variant AAV capsid (Adeno-associated virus 2 (isolate Srivastava/1982) (AAV-2)) (UniProt P03135)
[8] = biological target: AAV2 capsid variant γ4.3 (adeno-associated virus type 2 (AAV2)) (UniProt P03135)
[9] = biological target: wild-type AAV2 capsid (adeno-associated virus type 2 (AAV2)) (UniProt P03135)

Gamimune N, 10% Human IVIG (Bayer, Elkhart Ind.)
Fold Resistance Relative to AAV2 [1]: 1.76 fold
Neutralizing IVIG concentration (IVIG required to reduce gene delivery efficiency to 50% of that in the absence of IVIG) [1]: 0.026 mg/mL
fold enhanced resistance to pooled human IVIg compared to wild-type AAV2 [2]: 1.23 fold
Fold Resistance Relative to AAV2 [3]: 3.41 fold
Neutralizing IVIG concentration (IVIG required to reduce gene delivery efficiency to 50% of that in the absence of IVIG) [3]: 0.051 mg/mL
Fold Resistance Relative to AAV2 [4]: 4.39 fold
Neutralizing IVIG concentration (IVIG required to reduce gene delivery efficiency to 50% of that in the absence of IVIG) [4]: 0.066 mg/mL
Fold Resistance Relative to AAV2 [5]: 7.52 fold
Neutralizing IVIG concentration (IVIG required to reduce gene delivery efficiency to 50% of that in the absence of IVIG) [5]: 0.113 mg/mL
Fold Resistance Relative to AAV2 [6]: 6.11 fold
Neutralizing IVIG concentration (IVIG required to reduce gene delivery efficiency to 50% of that in the absence of IVIG) [6]: 0.092 mg/mL
Fold Resistance Relative to AAV2 [7]: 4.94 fold
Neutralizing IVIG concentration (IVIG required to reduce gene delivery efficiency to 50% of that in the absence of IVIG) [7]: 0.074 mg/mL
fold enhanced resistance to pooled human IVIg compared to wild-type AAV2 [8]: 3.1 fold
Fold Resistance Relative to AAV2 [9]: 1 fold
Neutralizing IVIG concentration (IVIG required to reduce gene delivery efficiency to 50% of that in the absence of IVIG) [9]: 0.015 mg/mL
